Experimental findings from publication PMC7841161, “APE1 distinguishes DNA substrates in exonucleolytic cleavage by induced space-filling” are described below.

Data set [1] addresses T1, mAPE1 full-length (mouse, UniProt P28352 1-317). Briefly: EMSA; 50 mM EDTA; complex visible at 1 uM mAPE1; EMSA: 50 mM EDTA, 20 mM Tris-HCl pH 7.0, 120 mM NaCl, on ice 10 min + 10 min, FAM-labeled substrates, TBE native gel. The note with it: protein: recombinant, label: FAM. (In general: A gel shift assay detects complexes by their altered migration in electrophoresis.)
The target of data set [2] is mAPE1 in blunt-ended crystal (mouse, UniProt P28352 40-317). Briefly: X-ray crystallography; product complex; EMSA: 50 mM EDTA, 20 mM Tris-HCl pH 7.0, 120 mM NaCl, on ice 10 min + 10 min, FAM-labeled substrates, TBE native gel. The note with it: protein: recombinant; chain copies: 2; 2 copies of one strand, 1-nt 5' overhangs; central A-A from self-pairing.
In data set [3] the target is mAPE1 in recessed crystal (mouse, UniProt P28352 31-317). Described as above. The note with it: protein: recombinant; 2 copies of one strand, 2-nt 5' overhangs; central A-A from self-pairing.
Data set [4] has as its target T1, mAPE1 full-length. Briefly: EMSA; 50 mM EDTA; similar to blunt; EMSA: 50 mM EDTA, 20 mM Tris-HCl pH 7.0, 120 mM NaCl, on ice 10 min + 10 min, FAM-labeled substrates, TBE native gel. The note with it: protein: recombinant, label: FAM.
The target in data set [5] is T1, mAPE1 full-length. The data set is described as follows: EMSA; 50 mM EDTA; weak low-MW complex seen; EMSA: 50 mM EDTA, 20 mM Tris-HCl pH 7.0, 120 mM NaCl, on ice 10 min + 10 min, FAM-labeled substrates, TBE native gel. The note with it: protein: recombinant; label: FAM; 3 strands, nick between strands 1 and 2.
In data set [6] the target is T1, mAPE1 full-length. Briefly: EMSA; 50 mM EDTA; mostly complexed at 5 uM, stronger than blunt; EMSA: 50 mM EDTA, 20 mM Tris-HCl pH 7.0, 120 mM NaCl, on ice 10 min + 10 min, FAM-labeled substrates, TBE native gel. The note with it: protein: recombinant; label: FAM; 5' overhang 20 nt on strand 2.
Data set [7] deals with T1, mAPE1 full-length. Briefly: EMSA; 50 mM EDTA; extra low-MW complex at 0.5 uM, higher affinity than ends; EMSA: 50 mM EDTA, 20 mM Tris-HCl pH 7.0, 120 mM NaCl, on ice 10 min + 10 min, FAM-labeled substrates, TBE native gel. The note with it: protein: recombinant; label: FAM; 3 strands, 1-nt gap between strands 1 and 2.

T1 sequence (P28352 whole entry): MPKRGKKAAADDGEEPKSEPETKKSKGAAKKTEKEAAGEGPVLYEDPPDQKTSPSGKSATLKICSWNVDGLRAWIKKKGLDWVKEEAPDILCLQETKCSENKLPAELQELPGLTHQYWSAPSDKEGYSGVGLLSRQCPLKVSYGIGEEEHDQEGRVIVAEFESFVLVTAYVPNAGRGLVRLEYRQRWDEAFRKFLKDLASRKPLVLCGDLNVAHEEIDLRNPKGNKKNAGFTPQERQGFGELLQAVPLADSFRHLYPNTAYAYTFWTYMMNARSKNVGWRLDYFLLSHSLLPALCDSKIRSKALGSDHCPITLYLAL
Sequence of mAPE1 in blunt-ended crystal (P28352 40-317): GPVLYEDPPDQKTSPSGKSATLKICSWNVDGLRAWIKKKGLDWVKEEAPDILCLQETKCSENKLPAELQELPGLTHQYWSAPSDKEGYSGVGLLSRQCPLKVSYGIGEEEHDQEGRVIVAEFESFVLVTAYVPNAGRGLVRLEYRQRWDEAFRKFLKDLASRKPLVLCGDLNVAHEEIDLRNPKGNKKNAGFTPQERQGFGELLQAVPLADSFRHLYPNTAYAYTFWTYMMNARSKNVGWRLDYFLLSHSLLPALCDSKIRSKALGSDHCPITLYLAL
Sequence of mAPE1 in recessed crystal (P28352 31-317): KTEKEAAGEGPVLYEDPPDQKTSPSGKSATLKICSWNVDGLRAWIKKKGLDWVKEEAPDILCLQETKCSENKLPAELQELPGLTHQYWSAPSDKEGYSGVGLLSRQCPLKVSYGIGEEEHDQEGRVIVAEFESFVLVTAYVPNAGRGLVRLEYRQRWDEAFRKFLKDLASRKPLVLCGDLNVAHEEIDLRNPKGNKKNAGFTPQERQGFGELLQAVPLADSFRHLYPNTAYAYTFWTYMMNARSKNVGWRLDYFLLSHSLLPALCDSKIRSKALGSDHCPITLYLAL

B1: blunt-ended dsDNA 20 bp (dsDNA)
DNA 1: ACTGGACAAATACTCCGAGG
DNA 2: CCTCGGAGTATTTGTCCAGT
For B1, the binding result with mAPE1 full-length [1] (blunt) was “binds”.

B2: recessed dsDNA 5 nt 5' overhang (dsDNA)
DNA 1: ACTGGACAAATACTCCGAGG
DNA 2: ATCACCCTCGGAGTATTTGTCCAGT
In the case of B2, the binding result with mAPE1 full-length [1] (5' overhang 5 nt on strand 2) is “binds”.

B3: blunt-ended dsDNA product (crystal) (dsDNA)
DNA 1: CGTAATAC
DNA 2: CGTAATAC
For the molecule B3, the binding result in data set [2] was “binds”.

B4: recessed dsDNA product (crystal) (dsDNA)
DNA 1: GCGTAATAC
DNA 2: GCGTAATAC
Take B4: the binding result in data set [3] is reported as “binds”.

B5: dsDNA 20 mer 1 nt mismatch (dsDNA)
DNA 1: ACTGGACAAATACTCCGAGG
DNA 2: ACTCGGAGTATTTGTCCAGT
For the molecule B5, the binding result with mAPE1 full-length [4] (1 nt mismatch at 3' end of strand 1) was “binds”.

B6: dsDNA 20 mer 2 nt mismatch (dsDNA)
DNA 1: ACTGGACAAATACTCCGAGG
DNA 2: AATCGGAGTATTTGTCCAGT
Consider B6, for which the binding result with mAPE1 full-length [4] (2 nt mismatch at 3' end of strand 1) is “binds”.

B7: nicked dsDNA 40 mer 5'-OH (dsDNA)
DNA 1: ACTGGACAAATACTCCGAGG
DNA 2: GTGATTAGTGAAGCGTGCTC
DNA 3: GAGCACGCTTCACTAATCACCCTCGGAGTATTTGTCCAGT
modifications: 5'-OH at nick
With B7, the binding result with mAPE1 full-length [5] is on record as “binds”.

B8: recessed dsDNA 20 nt 5' overhang (dsDNA)
DNA 1: ACTGGACAAATACTCCGAGG
DNA 2: GAGCACGCTTCACTAATCACCCTCGGAGTATTTGTCCAGT
On to B8, for which, in the data set with mAPE1 full-length [6], the binding result is listed as “binds”.

B9: 1-nt gapped dsDNA 40 mer, matched (dsDNA)
DNA 1: ACTGGACAAATACTCCGAGG
DNA 2: TGATTAGTGAAGCGTGCTC
DNA 3: GAGCACGCTTCACTAATCACCCTCGGAGTATTTGTCCAGT
modifications: 5'-OH or 5'-phosphate at gap margin (not stated which for EMSA)
Regarding B9, in the data set with mAPE1 full-length [7], the binding result was “binds”.
